Data: US20240321457A1 (University of California, published 2024)
One block for each binder: values may come before it.

Tests used:
AKT3 E17K mutant = AKT3 E17K mutant (human, UniProt Q9Y243 1-479); assay: AP-MS, 3xFLAG bait, breast cell lines
AKT1 E17K mutant = AKT1 E17K mutant (human, UniProt P31749 1-480); assay: AP-MS, 3xFLAG bait, breast cell lines
BRCA1 5382insC = molecular target: T1, BRCA1 5382insC (human, UniProt P38398 1-1755, limits assumed); assay: AP-MS, 3xFLAG bait, MDA-MB-231 cells
T1 construct: 3xFLAG-tagged bait; also called 5832insC

BRCA1 M1775R = molecular target: T2, BRCA1 M1775R (human, UniProt P38398 1-1863); assay: AP-MS, 3xFLAG bait, MDA-MB-231 cells
T2 construct: 3xFLAG-tagged bait; also called BRCT domain mutant M1775R

BRCA1 S1655F = molecular target: T3, BRCA1 S1655F (human, UniProt P38398 1-1863); assay: AP-MS, 3xFLAG bait, MDA-MB-231 cells
T3 construct: 3xFLAG-tagged bait; also called BRCT domain mutant S1655F; 51655F

UBE2N [1] = molecular target: T4, UBE2N (human, UniProt P61088 1-152); assay: quantitative AP-MS, prey abundance normalised to bait, MDA-MB-231 cells
T4 construct: endogenous prey from cell lysate; also called UBC13
T4 sequence (looked up): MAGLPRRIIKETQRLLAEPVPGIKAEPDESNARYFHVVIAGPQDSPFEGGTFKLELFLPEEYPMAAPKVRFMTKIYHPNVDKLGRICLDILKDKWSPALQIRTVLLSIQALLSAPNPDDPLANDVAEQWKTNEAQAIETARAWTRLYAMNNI

UBE2N [2] = molecular target: T4, UBE2N; assay: AP-MS, PPI score from compPASS and SAINTexpress, MDA-MB-231 cells
Description: For AP-MS experiments, samples were resuspended in 15 μL of MS loading buffer (4% formic acid, 2% acetonitrile) and 2 μL were separated by a reversed-phase gradient over a nanoflow 75 μm ID×25 cm long picotip column packed with 1.9 μM C18 particles (Dr. Maisch). Peptides were directly injected over the course of a 75 min acquisition into a Q-Exactive Plus mass spectrometer (Thermo), or over the course of a 90 min acquisition into a Orbitrap Elite mass spectrometer. […] Peptides and proteins were filtered to 1% false discovery rate in MaxQuant, and identified proteins were then subjected to protein-protein interaction scoring.
All PPI scoring was performed separately for each cell line. For SAINTexpress, control samples in which bait protein was not induced by addition of doxycycline were used. For CompPASS, a stats table representing all WT baits was used. After scoring, the CompPASS WD and Z-score were normalized within a given bait for each cell line. The total list of candidate PPIs was filtered to those that met the following criteria: SAINTexpress BFDR=<0.05, WD percentile by bait>=0.95, and Z-score percentile by bait≤=0.95. PPIs passing all 3 of these criteria were considered to be high-confidence PPIs. To enable visualization and analysis of PPIs by confidence score among these 3 criteria, a PPI score was calculated: [(WD percentile by bait+Z-score percentile by bait)/2)+(1−BFDR)]/2.

Sequence of AKT3 E17K mutant (Q9Y243 whole entry E17K): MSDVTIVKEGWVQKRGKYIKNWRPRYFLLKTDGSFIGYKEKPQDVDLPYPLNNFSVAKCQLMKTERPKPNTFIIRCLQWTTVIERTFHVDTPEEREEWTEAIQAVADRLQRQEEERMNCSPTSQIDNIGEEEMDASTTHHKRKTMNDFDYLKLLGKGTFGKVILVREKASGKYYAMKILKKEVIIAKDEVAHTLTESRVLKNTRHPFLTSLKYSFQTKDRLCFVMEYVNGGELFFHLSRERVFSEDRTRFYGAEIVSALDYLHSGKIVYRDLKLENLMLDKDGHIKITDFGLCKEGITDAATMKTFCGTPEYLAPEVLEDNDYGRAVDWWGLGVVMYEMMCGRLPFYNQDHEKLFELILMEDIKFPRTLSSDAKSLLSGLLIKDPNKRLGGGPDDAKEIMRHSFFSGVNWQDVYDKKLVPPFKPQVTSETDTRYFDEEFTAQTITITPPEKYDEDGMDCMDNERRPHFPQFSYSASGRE
Sequence of AKT1 E17K mutant (P31749 whole entry E17K): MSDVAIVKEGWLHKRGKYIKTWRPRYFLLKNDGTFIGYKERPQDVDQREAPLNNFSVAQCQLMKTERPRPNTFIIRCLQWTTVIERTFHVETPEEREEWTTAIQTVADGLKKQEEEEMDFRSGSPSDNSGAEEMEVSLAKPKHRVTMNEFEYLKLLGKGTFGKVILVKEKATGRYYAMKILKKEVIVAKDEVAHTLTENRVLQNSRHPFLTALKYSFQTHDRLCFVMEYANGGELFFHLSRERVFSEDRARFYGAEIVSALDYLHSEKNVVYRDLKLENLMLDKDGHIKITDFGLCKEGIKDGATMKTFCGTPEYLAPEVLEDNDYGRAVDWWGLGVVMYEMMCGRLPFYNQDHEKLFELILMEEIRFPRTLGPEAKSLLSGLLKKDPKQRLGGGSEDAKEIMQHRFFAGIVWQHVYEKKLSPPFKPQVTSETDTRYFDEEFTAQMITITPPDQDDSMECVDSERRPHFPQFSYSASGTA

B1: S100 Calcium Binding Protein A3 (other, human, UniProt P33764 2-101, looked up)
chain: ARPLEQAVAAIVCTFQEYAGRCGDKYKLCQAELKELLQKELATWTPTEFRECDYNKFMSVLDTNKDCEVDFVEYVRSLACLCLYCHEYFKDCPSEPPCSQ
notes: endogenous prey from cell lysate; also called S100A3
binding result (AKT3 E17K mutant): no binding

B2: keratin KRT32 (other, human, UniProt Q14532 1-448, looked up)
chain: MTSSCCVTNNLQASLKSCPRPASVCSSGVNCRPELCLGYVCQPMACLPSVCLPTTFRPASCLSKTYLSSSCQAASGISGSMGPGSWYSEGAFNGNEKETMQFLNDRLASYLTRVRQLEQENAELESRIQEASHSQVLTMTPDYQSHFRTIEELQQKILCTKAENARMVVNIDNAKLAADDFRAKYEAELAMRQLVEADINGLRRILDDLTLCKADLEAQVESLKEELMCLKKNHEEEVGSLRCQLGDRLNIEVDAAPPVDLTRVLEEMRCQYEAMVEANRRDVEEWFNMQMEELNQQVATSSEQLQNYQSDIIDLRRTVNTLEIELQAQHSLRDSLENTLTESEARYSSQLAQMQCMITNVEAQLAEIRADLERQNQEYQVLLDVRARLEGEINTYRSLLENEDCKLPCNPCSTPSCTTCVPSPCVPRTVCVPRTVGMPCSPCPQGRY
notes: endogenous prey from cell lysate
binding result (AKT3 E17K mutant): no binding

B5: UIMC1 (other, human, UniProt Q96RL1 1-719, looked up)
chain: MPRRKKKVKEVSESRNLEKKDVETTSSVSVKRKRRLEDAFIVISDSDGEEPKEENGLQKTKTKQSNRAKCLAKRKIAQMTEEEQFALALKMSEQEAREVNSQEEEEEELLRKAIAESLNSCRPSDASATRSRPLATGPSSQSHQEKTTDSGLTEGIWQLVPPSLFKGSHISQGNEAEEREEPWDHTEKTEEEPVSGSSGSWDQSSQPVFENVNVKSFDRCTGHSAEHTQCGKPQESTGRGSAFLKAVQGSGDTSRHCLPTLADAKGLQDTGGTVNYFWGIPFCPDGVDPNQYTKVILCQLEVYQKSLKMAQRQLLNKKGFGEPVLPRPPSLIQNECGQGEQASEKNECISEDMGDEDKEERQESRASDWHSKTKDFQESSIKSLKEKLLLEEEPTTSHGQSSQGIVEETSEEGNSVPASQSVAALTSKRSLVLMPESSAEEITVCPETQLSSSETFDLEREVSPGSRDILDGVRIIMADKEVGNKEDAEKEVAISTFSSSNQVSCPLCDQCFPPTKIERHAMYCNGLMEEDTVLTRRQKEAKTKSDSGTAAQTSLDIDKNEKCYLCKSLVPFREYQCHVDSCLQLAKADQGDGPEGSGRACSTVEGKWQQRLKNPKEKGHSEGRLLSFLEQSEHKTSDADIKSSETGAFRVPSPGMEEAGCSREMQSSFTRRDLNESPVKSFVSISEATDCLVDFKKQVTVQPGSRTRTKAGRGRRRKF
notes: as for B2
binding result (BRCA1 5382insC): no binding
binding result (BRCA1 M1775R): no binding
binding result (BRCA1 S1655F): no binding

B6: BRCA1 I26A (enzyme, human, UniProt P38398 1-1863, looked up)
chain: MDLSALRVEEVQNVINAMQKILECPACLELIKEPVSTKCDHIFCKFCMLKLLNQKKGPSQCPLCKNDITKRSLQESTRFSQLVEELLKIICAFQLDTGLEYANSYNFAKKENNSPEHLKDEVSIIQSMGYRNRAKRLLQSEPENPSLQETSLSVQLSNLGTVRTLRTKQRIQPQKTSVYIELGSDSSEDTVNKATYCSVGDQELLQITPQGTRDEISLDSAKKAACEFSETDVTNTEHHQPSNNDLNTTEKRAAERHPEKYQGSSVSNLHVEPCGTNTHASSLQHENSSLLLTKDRMNVEKAEFCNKSKQPGLARSQHNRWAGSKETCNDRRTPSTEKKVDLNADPLCERKEWNKQKLPCSENPRDTEDVPWITLNSSIQKVNEWFSRSDELLGSDDSHDGESESNAKVADVLDVLNEVDEYSGSSEKIDLLASDPHEALICKSERVHSKSVESNIEDKIFGKTYRKKASLPNLSHVTENLIIGAFVTEPQIIQERPLTNKLKRKRRPTSGLHPEDFIKKADLAVQKTPEMINQGTNQTEQNGQVMNITNSGHENKTKGDSIQNEKNPNPIESLEKESAFKTKAEPISSSISNMELELNIHNSKAPKKNRLRRKSSTRHIHALELVVSRNLSPPNCTELQIDSCSSSEEIKKKKYNQMPVRHSRNLQLMEGKEPATGAKKSNKPNEQTSKRHDSDTFPELKLTNAPGSFTKCSNTSELKEFVNPSLPREEKEEKLETVKVSNNAEDPKDLMLSGERVLQTERSVESSSISLVPGTDYGTQESISLLEVSTLGKAKTEPNKCVSQCAAFENPKGLIHGCSKDNRNDTEGFKYPLGHEVNHSRETSIEMEESELDAQYLQNTFKVSKRQSFAPFSNPGNAEEECATFSAHSGSLKKQSPKVTFECEQKEENQGKNESNIKPVQTVNITAGFPVVGQKDKPVDNAKCSIKGGSRFCLSSQFRGNETGLITPNKHGLLQNPYRIPPLFPIKSFVKTKCKKNLLEENFEEHSMSPEREMGNENIPSTVSTISRNNIRENVFKEASSSNINEVGSSTNEVGSSINEIGSSDENIQAELGRNRGPKLNAMLRLGVLQPEVYKQSLPGSNCKHPEIKKQEYEEVVQTVNTDFSPYLISDNLEQPMGSSHASQVCSETPDDLLDDGEIKEDTSFAENDIKESSAVFSKSVQKGELSRSPSPFTHTHLAQGYRRGAKKLESSEENLSSEDEELPCFQHLLFGKVNNIPSQSTRHSTVATECLSKNTEENLLSLKNSLNDCSNQVILAKASQEHHLSEETKCSASLFSSQCSELEDLTANTNTQDPFLIGSSKQMRHQSESQGVGLSDKELVSDDEERGTGLEENNQEEQSMDSNLGEAASGCESETSVSEDCSGLSSQSDILTTQQRDTMQHNLIKLQQEMAELEAVLEQHGSQPSNSYPSIISDSSALEDLRNPEQSTSEKAVLTSQKSSEYPISQNPEGLSADKFEVSADSSTSKNKEPGVERSSPSKCPSLDDRWYMHSCSGSLQNRNYPSQEELIKVVDVEEQQLEESGPHDLTETSYLPRQDLEGTPYLESGISLFSDDPESDPSEDRAPESARVGNIPSSTSALKVPQLKVAESAQSPAAAHTTDTAGYNAMEESVSREKPELTASTERVNKRMSMVVSGLTPEEFMLVYKFARKHHITLTNLITEETTHVVMKTDAEFVCERTLKYFLGIAGGKWVVSYFWVTQSIKERKMLNEHDFEVRGDVVNGRNHQGPKRARESQDRKIFRGLEICCYGPFTNMPTDQLEWMVQLCGASVVKELSSFTLGTGVHPIVVVQPDAWTEDNGFHAIGQMCEAPVVTREWVLDSVALYQCQELDTYLIPQIPHSHY
notes: 3xFLAG-tagged bait; printed I16A in the embodiments; also called RING domain mutant I26A
fold reduction of associated prey compared to WT (UBE2N [1]): 6 fold
PPI score (UBE2N [2]): < 0.6

Further lines, results first:

binding result (AKT1 E17K mutant): no binding
B3: CSTB (other, human, UniProt P04080 1-98, looked up)
chain: MMCGAPSATQPATAETQHIADQVRSQLEEKENKKFPVFKAVSFKSQVVAGTNYFIKVHVGDEDFVHLRVFQSLPHENKPLTLSNYQTNKAKHDELTYF
notes: as for B2

binding result (AKT1 E17K mutant): no binding
B4: SPRR3 (other, human, UniProt Q9UBC9 2-169, looked up)
chain: SSYQQKQTFTPPPQLQQQQVKQPSQPPPQEIFVPTTKEPCHSKVPQPGNTKIPEPGCTKVPEPGCTKVPEPGCTKVPEPGCTKVPEPGCTKVPEPGCTKVPEPGYTKVPEPGSIKVPDQGFIKFPEPGAIKVPEQGYTKVPVPGYTKLPEPCPSTVTPGPAQQKTKQK
notes: as for B2
